Positions count from the first letter of the chain named.
T1: Human recombinant CD5L protein (Sino Biological, Catalog Number 10791-H08H) (human, UniProt O43866 20-347)
T1 construct: Bought protein; also called human CD5L; CD5L-His; not shown: 6xHIS-tag
T1 sequence (looked up): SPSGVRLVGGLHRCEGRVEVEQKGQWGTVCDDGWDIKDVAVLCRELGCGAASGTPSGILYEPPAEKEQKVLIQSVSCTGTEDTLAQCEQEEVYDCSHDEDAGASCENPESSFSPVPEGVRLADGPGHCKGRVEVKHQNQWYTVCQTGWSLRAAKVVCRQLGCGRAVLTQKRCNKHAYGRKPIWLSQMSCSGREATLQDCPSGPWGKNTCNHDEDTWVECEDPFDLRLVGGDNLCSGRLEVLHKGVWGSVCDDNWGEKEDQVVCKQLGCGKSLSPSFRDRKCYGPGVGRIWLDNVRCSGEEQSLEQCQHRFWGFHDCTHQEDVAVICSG

B1: R-9 (antibody, V domains shown)
VH: QSVKESGGRLVTPGTPLTLTCTVSGFYLSTHGMTWVRQAPGKGLEYIGVIVTSGNTYYATWATGRFTISKTSTTVDLKITSPTTEDTATYFCARPGYKSVPLWGQGTLVTISS
VL: ELDLTQTPASVSAAVGGTVTINCQASEDIYSGLTWYQQKPGQPPKLLIYRASTLASGVPPRFKGSGSGTEFTLTISDLECDDAATYYCQNNYGSSSNNYVFAFGGGTEVEIK
B2: R-21 (antibody, V domains shown)
VH: QSVEESGGRLVTPGTPLTLTCTVSGIDLSSYAINWVRQAPGEGLEWIGMISSSDNTYYANWAKGRFTISRDSTTVDLKITSPTTEDTATYFCARFYAGRSYSLWGQGTLVTISS
VL: ELDLTQTPASVSAAVGGTVTISCQSSESVYKSNYLSWYQQKAGQPPKLLIYAAATLASGVPSRFKGSGSGTQFTLTISGVQCDDAATYYCQGTYYSSGWYNAFGGGTEVVVK
B3: R-36 (antibody, V domains shown)
VH: QSVKESGGGLFQPGGSLALTCKASGFSLSKNYVMCWVRQAPGKGLEWIACIYAGDGNTYYVSWAKGRFTISKTSSTTVTLQMTSLTAADTATYFCARWDYIGNNNLWGPGTLVTISS
VL: ELVLTQTPASVEAAVGGTVTIKCQASQTISSYLAWYQQKPGQPPKLLIYRASTLASGVPSRFKGSGSGTQFTLTISDLECADGATYYCQCPYYGSSHVGAFGGGTEVVVK
B4: R-11 (antibody, V domains shown)
VH: QSVKESGGDLVKPGASLTLTCTASGFDFSSNTMCWVRQAPGKGLEYIGYISYSGATHYASWAKGRFTISKTLSTTVTLQMTSLTDADTATYFCARDRGYVDGSYYGDFNLWGPGTLVTVSS
VL: ELVMTQTPSSASEPVGGTVTIKCQASQSIASRLAWFQQKPGQPPKLLIYRASTLESGVSSRFKGSGFGTEFTLTISDLECADAATYYCQSYYGSGYGKTFGGGTDVVVK
B5: R-23 (antibody, V domains shown)
VH: QSVEESGGRLVMPGGSLTLTCTVSGIDLSSNTMGWFRQAPGKGLEWIGIMRGGGSTYYATWAKGRFTISKTSTTVDLKLTSPTTEDTATYFCARAFPGYNSFFNFWGQGTLVTISS
VL: ELDLTQTPASVSEPVGGTVTIKCQASHNINSALAWYQQKPGQPPKLLIYKASTLASGVPPRFKGSGSGTEFTLTISDLECADAATYYCQRHYFDGASADIAFGGGTEVVVK
B6: H-119 (antibody, V domains shown)
VH: EVQLVQSGAEVKKPGESLKISCKGSGYSFTSYWIGWVRQMPGKGLEWMGIIYPGDSDTRYSPSFQGQVTISADKSISTAYLQWSSLKASDTAMYYCARGLAASTRFDPWGQGTLVTVSS
VL: DVQMTQSPSSLSASVGDRVTITCRPSQSINNYLNWYQQKPGEAPKLLIYAASNLQSGVPSRFSGSGSGTDFTLTISSLQPEDFGTYYCQQSYSIPLTFGGGTTVEIK
B7: R-51 (antibody, V domains shown)
VH: QSVKESGGRLVTPGTPLTLTCTVSTIDVSKYAVIWVRQAPGKGLEYIGIISSSGSTYYASWAKGRFTISKTSSTTVDLKMTSPTAEDTATYFCARGGNGVAFKLWGQGTLVTISS
VL: ELDLTQTPASVEAAVGGTVTINCQASQSIYSSLAWYQQKPGQPPKLLIYETSKVESGVPSRFSGSGSGTQFTLTISDLECADAATYYCQSHDYISSSGMPFGGGTELEIL
B8: R-6 (antibody, V domains shown)
VH: B7 VH with V3L, K4E
VL: ELDMTQTPASVEAAVGGTVTINCQASESINDRLAWYQLKPGQPPKLLIYETSQVESGVPSRFSGSGSGTQFTLTISDLECADAATYYCQSHDYISSSGMPFGGGTEVVVK
B9: R-10 (antibody, V domains shown)
VH: QSVKESGGRLVTPGTPLTLTCTLSGIDLSSYAMGWVRQAPGKGLEYIGIIGASGTTYYANWAKGRFTISRTSTTVDLKITSPTTEDTATYFCARAGYAGTGYPTRLDLWGQGTLVTISS
VL: ELDMTQTPASVEAAVGGTVTIKCQASQSISSSYLAWYQQKPGQPPKLLIYKASTLESGVPSRFSGSGSGTEFTLTISGVQCDDAATYYCLGGYFSFSNYDYGFGGGTEVEIK
B10: R-4 (antibody, V domains shown)
VH: QSVEESGGRLVTPGTPLTLTCTASGFSLSSYYMTWVRQAPGKGLEYIGIISDRGSTYYASWAKGRFTIAKTSSTTVDLKLTSLTTEDTATYFCYRGVDGSGGYAAGDLWGQGTLVTISS
VL: ELVLTQTPASVEAAVGGTVTIKCQASEDIYSYFAWYQQKPGQRPRLLIYEASKVASGVPSRFKGGGSGTQFTLTISDLECADAATYYCQNNFYMIGDDYGGTFGGGTEVEIK
B11: R-49 (antibody, V domains shown)
VH: QSVKESGGRLVTPGTPLTLTCTVSGFSLSINAINWVRQAPGKGLEWIGIITNIGNTYYASWAKGRFTISRTSTTVDLTMTSLTTEDTATYFCARNSYFDPWGPGTLVTISS
VL: ELVLTQTPSPVSAAVGGTVSISCQASQSVDSNNYCSWYQQKPGQPPKLLIHKASKLASGVPSRFKGSGSGTQFTLTINDLECDDAATYYCAGGLGDNIYAFGGGTEVEIN
B12: R-5 (antibody, V domains shown)
VH: QSVKESGGRLVTPGTPLTLTCTVSGFSLSSYAMSWVRQAPGKGLEWIGVIDVTGRTYYASWAKGRFTISKTSTTVDLKITSPTTEDTATYFCGRDSYLDYGDPNGLDPWGPGTLVTISS
VL: ELVMTQTPASVEAAVGGTVTIKCQASQSIGSNLAWYQQKPGQPPKLLIYTASNLAPGVSSRFKGSRSGTESTLIISDLECADAATYYCQCTYYGTSYMELGAFGGGTELEIK
B13: R-18 (antibody, V domains shown)
VH: QSVKESGGRLVTPGTPLTLTCTVSGFSLSNYAMSWVRQAPGKGLEWIGIIVTSGSTYYASWAKGRFTISKTSTTVDLKMTSLTAADTATYFCARHAYSIGSSLWGQGTLVTISS
VL: ELDLTQTPPSASEPVGGTVTIKCQASESISVRLAWYQQKPGQPPKLLIYKASNLPSGVPSRFKGSGSGTEFTLTISDLECDDAATYYCRNYYDISNNGAGFGGGTEVEIK
B14: R-39 (antibody, V domains shown)
VH: QSLEESGGRLVTPGGSLTLTCTVSGIDLSSYTMGWVRQAPGKGLEWIGVIAINGGTVYASWAKGRFTISKTSTTVDLKMTSPTPEDTATYFCARGAGKTWSSFNLWGQGTLVTISS
VL: ELVLTQTPASVSEPVGGTVTIKCQASQSIGSNLAWYQQKPGQPPKLLIYRASTLESGVPSRFSGSGSGTEFTLTISDLECADAATYYCQSYYGSSTNAFGGGTEVVVK
B15: R-29 (antibody, V domains shown)
VH: QSVEESGGRLVTPGTPLTLTCTVSGFSLSSYAMNWVRQAPGKGLEWIGLIYASGTTHYASWVNGRFTISKTSTTVTLKMTSLTAADTATYFCARDSYSTGNLWGQGTLVTISS
VL: ELVLTQTPASVSEPVGGTVTIKCQASQSIYSSLVWYQQKPGQPPKLLIYGASNLESGVPSRFKGSGSGTEYTLTISGVQCADAATYYCQCSGYNSRVFGGGTEVEIK
B16: R-1 (antibody, V domains shown)
VH: QSVEESGGRLVTPGTPLTLTCTVSGIDLSNYAINWVRQAPGKGLEWIGMISSGDVTYYASWAKGRFIISRTSSTTVDLKMTSPTIEDTATYFCARFFAGRSESLWGQGTLVTVSS
VL: ELDLTQTPSSVSAAVGGTVTINCQSSQSVNKNNYLSWYQQKPGQPPKLLIYSASALASGVSSRFSGSGSGTEFTLTISDVQCDDAATYYCQGTYYDSGWYNAFGGGTEVEIK
B17: CD5L-35Hu-1 (antibody, V domains shown)
VH: QVQLVESGGGVVQPGRSLRLSCAASGIDLSDYYMTWVRQAPGKGLEYIGIIYASGNAYFASWAKGRFTISRDSSTNTLFLQMNSLRAEDTAVYYCARNIGGSSNLWGQGTLVTVSS
VL: AIQLTQSPSSLSASVGDRVTITCQASERIYNNLAWYQQKPGKAPKLLFYSASTLASGVPSRFSGSGSGTDFTLTISSLQPEDFATYYCQCTGYGTTYGLVFGGGTKVEIK
notes: also called humanized CD5L-35Hu mAb (CD5L-35Hu-H1 + CD5L-35Hu-K1)
B18: CD5L-35Hu-3 (antibody, V domains shown)
VH: B17 VH with S73N, L78V
VL: B17 VL
notes: also called humanized CD5L-35Hu mAb (CD5L-35Hu-H2 + CD5L-35Hu-K1)
B19: CD5L-35Hu-4 (antibody, V domains shown)
VH: B17 VH with S73N, L78V
VL: B17 VL with A1E, I2L, S7T, T22K
notes: also called humanized CD5L-35Hu mAb (CD5L-35Hu-H2 + CD5L-35Hu-K2)
B20: CD5L-35Hu-2 (antibody, V domains shown)
VH: B17 VH
VL: B17 VL with A1E, I2L, S7T, T22K
notes: also called humanized CD5L-35Hu mAb (CD5L-35Hu-H1 + CD5L-35Hu-K2)

These binders were tested against T1, Human recombinant CD5L protein (Sino …) (assay: titration ELISA, human CD5L coated on plate).
Protocol: FIG. 11. […] Bound antibody was detected using a secondary antibody against rabbit IgG conjugated with HRP and TMB substrate for detection of A450 nm. EC₅₀ was estimated using GraphPad software by applying a 4-parameter fitting to calculate binding affinity of the antibodies.
Binding constants (EC₅₀) of a panel of monoclonal antibodies were estimated by titration ELISA, and the data were analyzed using the 4-parameter curve fitting with GraphPad Prism program (Table 6).

EC50 [µg/mL] | Binder
0.136 | B1
0.21 | B2
0.278 | B3
0.0474 | B4
0.14 | B5
0.0068 | B6
0.0144 | B7
0.187 | B8
0.307 | B9
0.0713 | B10
0.0077 | B11
0.148 | B12
0.19 | B13
0.246 | B14
0.161 | B15
0.0598 | B16

Each binder was assayed against T1, Human recombinant CD5L protein (Sino …) (assay: BLI (Octet RED96), antibody on Protein A biosensors, CD5L-His in solution, global fit).
Protocol: Kinetic binding parameters (KD, kon, and koff) in (Table 11) were determined using Octet RED96 instrument and binding curves are shown in FIG. 17. […] KDs are calculated using Octet software with global fitting model.

Kd [pM] | koff [s⁻¹] | kon [M⁻¹ s⁻¹] | Binder
< 1 | < 1e-07 | 146000 | B17
< 1 | < 1e-07 | 119000 | B18
< 1 | < 1e-07 | 106000 | B19
< 1 | < 1e-07 | 125000 | B20

What follows are binders tested against T1, Human recombinant CD5L protein (Sino …) (assay: BLI (Octet RED96), antibody on protein A biosensors, CD5L 0.1-200 nM in solution, 1:1 fit).
Protocol: All experiments were performed with shaking at 1,000 rpm. Background wavelength shifts were measured from reference biosensors that were loaded only with antibody. ForteBio's data analysis software was used to fit the data to a 1:1 binding model to extract an association rate and dissociation rate.

Kd [pM] | Binder
1560 | B13
